Results on three molecules are retold here after WO2025026282A1 (dated 2025).

The target of test [1] is T1, Human PD-L1 (human, UniProt Q9NZQ7 19-238, limits assumed).
T1 construct: Diluted to 2 ug/ml in KB buffer for BLI; construct not described
Kind of test: BLI (Octet R8), human PD-L1.

Test [2] addresses T2, human CD3 epsilon (human, UniProt P07766 23-126, limits assumed).
T2 construct: the same molecule is used here for both
Kind of test: SPR (Biacore), antigen captured, antibody as analyte.

T2 sequence (P07766 23-126 limits assumed): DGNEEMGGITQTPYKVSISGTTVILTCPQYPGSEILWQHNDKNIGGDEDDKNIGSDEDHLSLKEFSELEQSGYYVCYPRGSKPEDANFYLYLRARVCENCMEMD
T1 sequence (Q9NZQ7 19-238 limits assumed): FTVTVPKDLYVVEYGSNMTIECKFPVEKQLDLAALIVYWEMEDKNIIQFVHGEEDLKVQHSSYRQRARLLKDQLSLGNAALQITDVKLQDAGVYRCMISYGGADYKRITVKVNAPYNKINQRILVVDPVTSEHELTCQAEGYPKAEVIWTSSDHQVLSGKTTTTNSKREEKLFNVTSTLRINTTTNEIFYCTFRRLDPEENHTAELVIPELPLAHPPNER

B1: 12A69 (other)
chain 1: QAVVTQEPSLTVSPGGTVTLTCRSSTGAVTTSNYANWVQQKPGQAPRGLIGGTNKRAPWTPARFSGSLLGGKAALTLSGAQAEDEADYYCALWYSNLWVFGGGTKLTVLRTVAAQVQLVQSGAEVKKPGSSVKVSCKTSGDTFSSYAISWVRDAPGQCLEWMGGIIPIFGKAHYAQKFQGRVTITADESTSTAYMELSSLRSEDTAVYFCARKFHFVSGSPFGMDVWGQGTTVTVSSASEPKSSDKTHTCPPCPAPPVAGPSVFLFPPKPKDTLMISRTPEVTCVVVDVSQEDPEVKFNWYVDGVEVHNAKTKPREEQFNSTYRVVSVLTVLHQDWLNGKEYKCKVSNKGLPSSIEKTISKAKGQPREPQVYTLPPSRDELTKNQVSLWCLVKGFYPSDIAVEWESNGQPENNYKTTPPVLDSDGSFFLYSKLTVDKSRWQQGNVFSCSVMHEALHNHYTQKSLSLSP
chain 2: EVQLVESGGGLVQPGGSLRLSCAASGFTFTDYYMNWVRQAPGKALEWLGFIRNKVNGDTTEYAASVKGRFTISRDDSKNSLYLQMNSLKTEDTAVYYCARDKGIAYYFDYWGQGTLVTVSSASTKGPSVFPLAPSSKSTSGGTAALGCLVKDYFPEPVTVSWNSGALTSGVHTFPAVLQSSGLYSLSSVVTVPSSSLGTQTYICNVNHKPSNTKVDKKVEPKSCDGGGGSGGGGSEIVLTQSPATLSLSPGERATLSCRASQSVSSYLAWYQKKPGQAPRLLIYDASNRATGIPARFSGSGSGTDFTLTISSLEPEDFAVYYCQQRSNAPTFGCGTKVEIKRTVAAEVQLVESGGGLVQPGGSLRLSCAASGFTFSTYAMNWVRQAPGKGLEWVGRIRSKYNNYATYYADSVKGRFTISRDDSKNSLYLQMNSLRAEDTAVYYCVRHGNFGTSYVSWFAYWGQGTLVTVSS
chain 3: EVQLVESGGGLVQPGGSLRLSCAASGFTFTDYYMNWVRQAPGKALEWLGFIRNKVNGDTTEYAASVKGRFTISRDDSKNSLYLQMNSLKTEDTAVYYCARDKGIAYYFDYWGQGTLVTVSSASTKGPSVFPLAPSSKSTSGGTAALGCLVKDYFPEPVTVSWNSGALTSGVHTFPAVLQSSGLYSLSSVVTVPSSSLGTQTYICNVNHKPSNTKVDKKVEPKSCDKTHTCPPCPAPPVAGPSVFLFPPKPKDTLMISRTPEVTCVVVDVSQEDPEVKFNWYVDGVEVHNAKTKPREEQFNSTYRVVSVLTVLHQDWLNGKEYKCKVSNKGLPSSIEKTISKAKGQPREPQVYTLPPSRDELTKNQVSLSCAVKGFYPSDIAVEWESNGQPENNYKTTPPVLDSDGSFFLVSKLTVDKSRWQQGNVFSCSVMHEALHNRFTQKSLSLSP
chain 4: EIVLTQSPATLSASPGERATLSCRASQSVSYIHWYQQKPGQSPRPWIHGTSNLATGVPARFSGSGSGTDFTLTISSLEPEDAAVYYCQQWSSNLSTFGGGTKVEIKRTVAAPSVFIFPPSDEQLKSGTASVVCLLNNFYPREAKVQWKVDNALQSGNSQESVTEQDSKDSTYSLSSTLTLSKADYEKHKVYACEVTHQGLSSPVTKSFNRGEC
Turning to B1, in test [1], the Kd stood at 72.8 nM.

B2: 12A44 (other)
chain 1: QAVVTQEPSLTVSPGGTVTLTCRSSTGAVTTSNYANWVQQKPGQAPRGLIGGTNKRAPWTPARFSGSLLGGKAALTLSGAQAEDEADYYCALWYSNLWVFGGGTKLTVLRTVAAQVQLVQSGAEVKKPGSSVKVSCKTSGDTFSSYAISWVRDAPGQCLEWMGGIIPIFGKAHYAQKFQGRVTITADESTSTAYMELSSLRSEDTAVYFCARKFHFVSGSPFGMDVWGQGTTVTVSSASEPKSSDKTHTCPPCPAPPVAGPSVFLFPPKPKDTLMISRTPEVTCVVVDVSQEDPEVKFNWYVDGVEVHNAKTKPREEQFNSTYRVVSVLTVLHQDWLNGKEYKCKVSNKGLPSSIEKTISKAKGQPREPQVYTLPPSRDELTKNQVSLWCLVKGFYPSDIAVEWESNGQPENNYKTTPPVLDSDGSFFLYSKLTVDKSRWQQGNVFSCSVMHEALHNHYTQKSLSLSP
chain 2: EVQLVESGGGLVQPGGSLRLSCAASGFTFTDYYMNWVRQAPGKALEWLGFIRNKVNGDTTEYAASVKGRFTISRDDSKNSLYLQMNSLKTEDTAVYYCARDKGIAYYFDYWGQGTLVTVSSASTKGPSVFPLAPSSKSTSGGTAALGCLVKDYFPEPVTVSWNSGALTSGVHTFPAVLQSSGLYSLSSVVTVPSSSLGTQTYICNVNHKPSNTKVDKKVEPKSCDGGGGSGGGGSEIVLTQSPATLSLSPGERATLSCRASQSVSSYLAWYQKKPGQAPRLLIYDASNRATGIPARFSGSGSGTDFTLTISSLEPEDFAVYYCQQRSNWPTFGCGTKVEIKRTVAAEVQLVESGGGLVQPGGSLRLSCAASGFTFSTYAMNWVRQAPGKGLEWVGRIRSQYNNYATYYADSVKGRFTISRDDSKNSLYLQMNSLRAEDTAVYYCVRHGNFGTSYVSWFAYWGQGTLVTVSS
chain 3: EVQLVESGGGLVQPGGSLRLSCAASGFTFTDYYMNWVRQAPGKALEWLGFIRNKVNGDTTEYAASVKGRFTISRDDSKNSLYLQMNSLKTEDTAVYYCARDKGIAYYFDYWGQGTLVTVSSASTKGPSVFPLAPSSKSTSGGTAALGCLVKDYFPEPVTVSWNSGALTSGVHTFPAVLQSSGLYSLSSVVTVPSSSLGTQTYICNVNHKPSNTKVDKKVEPKSCDKTHTCPPCPAPPVAGPSVFLFPPKPKDTLMISRTPEVTCVVVDVSQEDPEVKFNWYVDGVEVHNAKTKPREEQFNSTYRVVSVLTVLHQDWLNGKEYKCKVSNKGLPSSIEKTISKAKGQPREPQVYTLPPSRDELTKNQVSLSCAVKGFYPSDIAVEWESNGQPENNYKTTPPVLDSDGSFFLVSKLTVDKSRWQQGNVFSCSVMHEALHNRFTQKSLSLSP
chain 4: EIVLTQSPATLSASPGERATLSCRASQSVSYIHWYQQKPGQSPRPWIHGTSNLATGVPARFSGSGSGTDFTLTISSLEPEDAAVYYCQQWSSNLSTFGGGTKVEIKRTVAAPSVFIFPPSDEQLKSGTASVVCLLNNFYPREAKVQWKVDNALQSGNSQESVTEQDSKDSTYSLSSTLTLSKADYEKHKVYACEVTHQGLSSPVTKSFNRGEC
B2 yielded a Kd in test [2] of 118 nM.

B3: 12A46 (other)
chain 1: QAVVTQEPSLTVSPGGTVTLTCRSSTGAVTTSNYANWVQQKPGQAPRGLIGGTNKRAPWTPARFSGSLLGGKAALTLSGAQAEDEADYYCALWYSNLWVFGGGTKLTVLRTVAAQVQLVQSGAEVKKPGSSVKVSCKTSGDTFSSYAISWVRDAPGQCLEWMGGIIPIFGKAHYAQKFQGRVTITADESTSTAYMELSSLRSEDTAVYFCARKFHFVSGSPFGMDVWGQGTTVTVSSASEPKSSDKTHTCPPCPAPPVAGPSVFLFPPKPKDTLMISRTPEVTCVVVDVSQEDPEVKFNWYVDGVEVHNAKTKPREEQFNSTYRVVSVLTVLHQDWLNGKEYKCKVSNKGLPSSIEKTISKAKGQPREPQVYTLPPSRDELTKNQVSLWCLVKGFYPSDIAVEWESNGQPENNYKTTPPVLDSDGSFFLYSKLTVDKSRWQQGNVFSCSVMHEALHNHYTQKSLSLSP
chain 2: EVQLVESGGGLVQPGGSLRLSCAASGFTFTDYYMNWVRQAPGKALEWLGFIRNKVNGDTTEYAASVKGRFTISRDDSKNSLYLQMNSLKTEDTAVYYCARDKGIAYYFDYWGQGTLVTVSSASTKGPSVFPLAPSSKSTSGGTAALGCLVKDYFPEPVTVSWNSGALTSGVHTFPAVLQSSGLYSLSSVVTVPSSSLGTQTYICNVNHKPSNTKVDKKVEPKSCDGGGGSGGGGSEIVLTQSPATLSLSPGERATLSCRASQSVSSYLAWYQKKPGQAPRLLIYDASNRATGIPARFSGSGSGTDFTLTISSLEPEDFAVYYCQQRSNWPTFGCGTKVEIKRTVAAEVQLVESGGGLVQPGGSLRLSCAASGFTFSTYAMNWVRQAPGKGLEWVGRIRSKYNNYATYYADSVKGRFTISRDDSKNSLYLQMNSLRAEDTAVYYCVRHGNFGTSYASWFAYWGQGTLVTVSS
heavy: EVQLVESGGGLVQPGGSLRLSCAASGFTFTDYYMNWVRQAPGKALEWLGFIRNKVNGDTTEYAASVKGRFTISRDDSKNSLYLQMNSLKTEDTAVYYCARDKGIAYYFDYWGQGTLVTVSSASTKGPSVFPLAPSSKSTSGGTAALGCLVKDYFPEPVTVSWNSGALTSGVHTFPAVLQSSGLYSLSSVVTVPSSSLGTQTYICNVNHKPSNTKVDKKVEPKSCDKTHTCPPCPAPPVAGPSVFLFPPKPKDTLMISRTPEVTCVVVDVSQEDPEVKFNWYVDGVEVHNAKTKPREEQFNSTYRVVSVLTVLHQDWLNGKEYKCKVSNKGLPSSIEKTISKAKGQPREPQVYTLPPSRDELTKNQVSLSCAVKGFYPSDIAVEWESNGQPENNYKTTPPVLDSDGSFFLVSKLTVDKSRWQQGNVFSCSVMHEALHNRFTQKSLSLSP
light: EIVLTQSPATLSASPGERATLSCRASQSVSYIHWYQQKPGQSPRPWIHGTSNLATGVPARFSGSGSGTDFTLTISSLEPEDAAVYYCQQWSSNLSTFGGGTKVEIKRTVAAPSVFIFPPSDEQLKSGTASVVCLLNNFYPREAKVQWKVDNALQSGNSQESVTEQDSKDSTYSLSSTLTLSKADYEKHKVYACEVTHQGLSSPVTKSFNRGEC
notes: Kabat position; choice of chain inferred; also called V100C A (12A46)
As for B3, in test [2], the affinity, expressed as Kd, was 176 nM.
